In paper PMC5331223, “Differential regulation of the Epr3 receptor coordinates membrane-restricted rhizobial colonization of root nodule primordia”:

Target: NIN (520-878) (Lotus japonicus, UniProt Q9S7B1 520-878)
Assay: EMSA; 25 mM Tris-HCl pH 8.0, 80 mM NaCl, 35 mM KCl, 5 mM MgCl2, 10% glycerol, 1 mM DTT, 0.1% Triton; 25 nM probe, 2 ul protein (ERN1 0.75 mg/ml, NIN 1.0 mg/ml stock); 30 min at 30 C (ERN1) or 37 C (NIN); gel in 0.5x TBE
Details: protein: recombinant; tags: His-tag (pET30); label: 6-FAM at 5' of strand 1; blunt

Sequence of NIN (520-878) (Q9S7B1 entry or part of it): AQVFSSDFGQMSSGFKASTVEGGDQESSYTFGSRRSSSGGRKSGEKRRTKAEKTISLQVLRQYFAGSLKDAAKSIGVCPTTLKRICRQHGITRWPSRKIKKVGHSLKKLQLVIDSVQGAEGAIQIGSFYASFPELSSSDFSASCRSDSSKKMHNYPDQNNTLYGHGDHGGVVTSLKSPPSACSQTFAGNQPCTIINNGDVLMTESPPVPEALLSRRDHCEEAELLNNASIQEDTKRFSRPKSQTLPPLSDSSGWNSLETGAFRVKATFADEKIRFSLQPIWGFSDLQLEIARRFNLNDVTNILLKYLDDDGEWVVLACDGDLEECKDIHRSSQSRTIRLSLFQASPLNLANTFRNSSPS

B1: Nin1 probe (Epr3 promoter wt) (dsDNA)
DNA 1: ATACCCTGCCCTTACAGACAAGTATAAGAGGCACAAAA
DNA 2: TTTTGTGCCTCTTATACTTGTCTGTAAGGGCAGGGTAT
Question: Does B1 bind?
Answer: binds
